Assay results as given in patent publication US20100273186A1, “SPLIT MUTANT HYDROLASE FUSION REPORTER AND USES THEREOF” (Promega Corporation, priority 2007, published 2010).

How the values were obtained:
[1] = Fluorescence polarization (FP) labeling assay; assay type: binding; conditions: relative to DhaA.H272F H11YL
Description: Fluorescence polarization (FP) is ideal for the study of small fluorescent ligands binding to proteins. It is unique among methods used to analyze molecular binding because it gives direct nearly instantaneous measure of a substrate bound/free ratio. Therefore, an FP assay was developed as an alternative approach to fluorimage gel analysis of the purified DhaA mutants. […] To place this rate in perspective, approximately 42 and 420-fold more A7 and parental, i.e., DhaA.H272F, protein, respectively, was required in the reaction to obtain measurable rates. Under the labeling conditions used, it is evident that the H11YL mutant was also considerably faster than A7 and parental, DhaA.H272F proteins with the fluorescein-based substrate. However, it appears that labeling of H11YL with carboxyfluorescein-C10H21NO2—Cl is markedly slower than labeling with the corresponding carboxytetramethylrhodamine-C10H21NO2—Cl substrate. Four-fold more H11YL protein was used in the carboxyfluorescein-C10H21NO2—Cl reaction (150 nM) versus the carboxytetramethylrhodamine-C10H21NO2—Cl reaction (35 nM), yet the rate observed appeared to be qualitatively slower than the observed carboxytetramethylrhodamine-C10H21NO2—Cl rate.
Based on the sensitivity and truly homogenous nature of this assay, FP was used to characterize the labeling properties of the purified DhaA mutants with the fluorescently coupled substrates. The data from these studies was then used to calculate a second order rate constant for each DhaA mutant-substrate pair. […] However, in each case labeling was slower with the carboxyfluorescein-C10H21NO2—Cl substrate. All of the first generation DhaA mutants characterized by FP had rates that ranged from 7 to 3555-fold faster than the corresponding parental protein. By far, the biggest impact on labeling rate by a single amino acid substitution occurred with the three replacements at the 273 position (Y273L, Y273M, and Y273C) in the DhaA.H272F background. Nevertheless, in each of the first generation DhaA.H272F mutants tested, labeling with the carboxyfluorescein-C10H21NO2—Cl substrate always occurred at a slower rate (1.6 to 46-fold). […] The H11YL rate constant of 2.2×10^6 M^−1 sec^−1 was nearly identical to the rate constant calculated for a carboxytetramethylrhodamine-coupled biotin/streptavidin interaction. This value is consistent with an on-rate of 5×10^6 M^−1 sec^1 determined for a biotin-streptavidin interaction using surface plasmon resonance analysis (Qureshi et al., 2001). Several of the second generation mutants also had improved rates with the carboxyfluorescein-C10H21NO2—Cl substrate, however, as noted previously, these rates were always slower than with the carboxytetramethylrhodamine-C10H21NO2—Cl substrate. […]

[2] = Binding of substrate to DhaA mutants
Description: (§1) Carboxytetramethylrhodamine-C10H21NO2—Cl, carboxyfluorescein-C10H21NO2—Cl, and 5-carboxy-X-rhodamine-C10H21NO2—Cl bound to DhaA.H272F but not to DhaA.WT. Biotin-C10H21NO2—Cl bound to DhaA.H272F but not to DhaA.WT.
DhaA.H272 mutants, i.e. H272F/G/A/Q, bound to carboxytetramethylrhodamine-C10H21NO2—Cl.
A control mutant, DhaA.D106Q, single mutants DhaA.D106C, DhaA.D106Y, and DhaA.D106E, as well as double mutants DhaA.D106C:H272F, DhaA.D106E:H272F, DhaA.D106Q:H272F, and DhaA.D106Y:H272F were analyzed for binding to carboxytetramethylrhodamine-C10H21NO2—Cl. Carboxytetramethylrhodamine-C10H21NO2—Cl bound to DhaA.D106C, DhaA.D106C:H272F, DhaA.D106E, and DhaA.H272F. Thus, the bond formed between carboxytetramethylrhodamine-C10H21NO2—Cl and cysteine or glutamate at residue 106 in a mutant DhaA is stable relative to the bond formed between carboxytetramethylrhodamine-C10H21NO2—Cl and DhaA.WT. Other substitutions at position 106 alone or in combination with substitutions at other residues in DhaA may yield similar results. Further, certain substitutions at position 106 alone or in combination with substitutions at other residues in DhaA may result in a mutant DhaA that forms a bond with only certain substrates.

[3] = Binding of substrate to DhaA mutants; remark: listed apart in the source
Description: as §1

[4] = MagneGST-based assay; assay type: binding
Description: An automated MagneGST™-based assay was used to screen the DhaA mutant protein libraries. […] For clones with at least 50% higher activity than the DhaA.H272F parent, the overall hit rate of the libraries examined varied from between 1-3%. Similar screening results were obtained for the DhaA.D106C libraries (data not shown). The hits identified by the initial primary screen were located in the master plates, consolidated, re-grown and reanalyzed using the MagneGST™ assay. Only those DhaA mutants with at least a 2-fold higher signal than the parental control upon reanalysis were chosen for sequence analysis.
The results of these analyses were consistent with protein labeling studies using SDS-PAGE fluorimage gel analysis. In an effort to determine if combinations of the best mutations identified in the DhaA.H272F background were additive, the three mutations at residue 273 were recombined with the DhaA.H272F A7 and DhaA.H272F H11 mutations. In order to distinguish these recombined protein mutants from the mutants identified in round one of screening (first generation), they are referred to as “second generation” DhaA mutants.

B1: DhaA.H272F: DhaA mutant, catalytic triad His272 replaced with Phe (protein, UniProt P0A3G2 1-293, looked up, variant H272F)
Haloalkane dehalogenase: MSEIGTGFPFDPHYVEVLGERMHYVDVGPRDGTPVLFLHGNPTSSYLWRNIIPHVAPSHRCIAPDLIGMGKSDKPDLDYFFDDHVRYLDAFIEALGLEEVVLVIHDWGSALGFHWAKRNPERVKGIACMEFIRPIPTWDEWPEFARETFQAFRTADVGRELIIDQNAFIEGALPKCVVRPLTEVEMDHYREPFLKPVDREPLWRFPNELPIAGEPANIVALVEAYMNWLHQSPVPKLLFWGTPGVLIPPAEAARLAESLPNCKTVDIGPGLFYLQEDNPDLIGSEIARWLPAL
fold more protein required in the reaction to obtain measurable rates [1]: ~420 fold
binding to carboxytetramethylrhodamine-C10H21NO2—Cl [2]: bound
binding to 5-carboxy-X-rhodamine-C10H21NO2—Cl [3]: bound
binding to Biotin-C10H21NO2—Cl [3]: bound
binding to carboxyfluorescein-C10H21NO2—Cl [3]: bound

B2: YM: DhaA.H272F based mutant with Y273M (protein, UniProt P0A3G2 1-293, looked up, variant H272F Y273M)
Haloalkane dehalogenase: MSEIGTGFPFDPHYVEVLGERMHYVDVGPRDGTPVLFLHGNPTSSYLWRNIIPHVAPSHRCIAPDLIGMGKSDKPDLDYFFDDHVRYLDAFIEALGLEEVVLVIHDWGSALGFHWAKRNPERVKGIACMEFIRPIPTWDEWPEFARETFQAFRTADVGRELIIDQNAFIEGALPKCVVRPLTEVEMDHYREPFLKPVDREPLWRFPNELPIAGEPANIVALVEAYMNWLHQSPVPKLLFWGTPGVLIPPAEAARLAESLPNCKTVDIGPGLFMLQEDNPDLIGSEIARWLPAL
improvement over the parental clones [4]: significantly improved

B3: DhaA.D106E: DhaA single mutant D106E (protein, UniProt P0A3G2 1-293, looked up, variant D106E)
Haloalkane dehalogenase: MSEIGTGFPFDPHYVEVLGERMHYVDVGPRDGTPVLFLHGNPTSSYLWRNIIPHVAPSHRCIAPDLIGMGKSDKPDLDYFFDDHVRYLDAFIEALGLEEVVLVIHEWGSALGFHWAKRNPERVKGIACMEFIRPIPTWDEWPEFARETFQAFRTADVGRELIIDQNAFIEGALPKCVVRPLTEVEMDHYREPFLKPVDREPLWRFPNELPIAGEPANIVALVEAYMNWLHQSPVPKLLFWGTPGVLIPPAEAARLAESLPNCKTVDIGPGLHYLQEDNPDLIGSEIARWLPAL
binding to carboxytetramethylrhodamine-C10H21NO2—Cl [2]: bound

B4: DhaA.WT: wild type Rhodococcus rhodochrous dehalogenase (DhaA), SEQ ID NO:1 (protein, listed as Rhodococcus rhodochrous)
chain: MSEIGTGFPFDPHYVEVLGERMHYVDVGPRDGTPVLFLHGNPTSSYLWRNIIPHVAPSHRCIAPDLIGMGKSDKPDLDYFFDDHVRYLDAFIEALGLEEVVLVIHDWGSALGFHWAKRNPERVKGIACMEFIRPIPTWDEWPEFARETFQAFRTADVGRELIIDQNAFIEGALPKCVVRPLTEVEMDHYREPFLKPVDREPLWRFPNELPIAGEPANIVALVEAYMNWLHQSPVPKLLFWGTPGVLIPPAEAARLAESLPNCKTVDIGPGLHYLQEDNPDLIGSEIARWLPAL
binding to carboxytetramethylrhodamine-C10H21NO2—Cl [2]: not
binding to 5-carboxy-X-rhodamine-C10H21NO2—Cl [3]: not
binding to Biotin-C10H21NO2—Cl [3]: not
binding to carboxyfluorescein-C10H21NO2—Cl [3]: not

B5: YC: DhaA.H272F based mutant with Y273C (protein, UniProt P0A3G2 1-293, looked up, variant H272F Y273C)
Haloalkane dehalogenase: MSEIGTGFPFDPHYVEVLGERMHYVDVGPRDGTPVLFLHGNPTSSYLWRNIIPHVAPSHRCIAPDLIGMGKSDKPDLDYFFDDHVRYLDAFIEALGLEEVVLVIHDWGSALGFHWAKRNPERVKGIACMEFIRPIPTWDEWPEFARETFQAFRTADVGRELIIDQNAFIEGALPKCVVRPLTEVEMDHYREPFLKPVDREPLWRFPNELPIAGEPANIVALVEAYMNWLHQSPVPKLLFWGTPGVLIPPAEAARLAESLPNCKTVDIGPGLFCLQEDNPDLIGSEIARWLPAL
improvement over the parental clones [4]: significantly improved

B6: YL: DhaA.H272F based mutant with Y273L (protein, UniProt P0A3G2 1-293, looked up, variant H272F Y273L)
Haloalkane dehalogenase: MSEIGTGFPFDPHYVEVLGERMHYVDVGPRDGTPVLFLHGNPTSSYLWRNIIPHVAPSHRCIAPDLIGMGKSDKPDLDYFFDDHVRYLDAFIEALGLEEVVLVIHDWGSALGFHWAKRNPERVKGIACMEFIRPIPTWDEWPEFARETFQAFRTADVGRELIIDQNAFIEGALPKCVVRPLTEVEMDHYREPFLKPVDREPLWRFPNELPIAGEPANIVALVEAYMNWLHQSPVPKLLFWGTPGVLIPPAEAARLAESLPNCKTVDIGPGLFLLQEDNPDLIGSEIARWLPAL
improvement over the parental clones [4]: significantly improved

B7: DhaA.D106C:H272F: DhaA double mutant D106C and H272F (protein, UniProt P0A3G2 1-293, looked up, variant D106C H272F)
Haloalkane dehalogenase: MSEIGTGFPFDPHYVEVLGERMHYVDVGPRDGTPVLFLHGNPTSSYLWRNIIPHVAPSHRCIAPDLIGMGKSDKPDLDYFFDDHVRYLDAFIEALGLEEVVLVIHCWGSALGFHWAKRNPERVKGIACMEFIRPIPTWDEWPEFARETFQAFRTADVGRELIIDQNAFIEGALPKCVVRPLTEVEMDHYREPFLKPVDREPLWRFPNELPIAGEPANIVALVEAYMNWLHQSPVPKLLFWGTPGVLIPPAEAARLAESLPNCKTVDIGPGLFYLQEDNPDLIGSEIARWLPAL
binding to carboxytetramethylrhodamine-C10H21NO2—Cl [2]: bound

B8: DhaA.D106C: DhaA mutant, Asp106 replaced with Cys (protein, UniProt P0A3G2 1-293, looked up, variant D106C)
Haloalkane dehalogenase: MSEIGTGFPFDPHYVEVLGERMHYVDVGPRDGTPVLFLHGNPTSSYLWRNIIPHVAPSHRCIAPDLIGMGKSDKPDLDYFFDDHVRYLDAFIEALGLEEVVLVIHCWGSALGFHWAKRNPERVKGIACMEFIRPIPTWDEWPEFARETFQAFRTADVGRELIIDQNAFIEGALPKCVVRPLTEVEMDHYREPFLKPVDREPLWRFPNELPIAGEPANIVALVEAYMNWLHQSPVPKLLFWGTPGVLIPPAEAARLAESLPNCKTVDIGPGLHYLQEDNPDLIGSEIARWLPAL
binding to carboxytetramethylrhodamine-C10H21NO2—Cl [2]: bound
